Test results from the RNAGym collection of RNA variant scans (doi:10.7554/elife.90254).

B1: LINE1-mini (parent)
chain: GGCAGAGCUCAACACAGCGUGGCAAAGUGGCUGUGGCUAGACUGCC

Variants of: B1
Assay: self-cleavage, relative activity (ratio to wild type); higher = more cleavage; in vitro, sequencing; the parent is a self-cleaving ribozyme

Point of comparison: GGCAGAGCUCAACCCAGCGUGGCAAAGUGGCUGCGGCUAGACUGCC [A14C U34C], self-cleavage 0.07. Against it:
- GGCAGAGCUCAACCCAGCGUGGCAAAGUGGCUGUGGCAAGACUGCC [A14C U38A] — higher, 0.21
- GGCAGAGCUCAACCCAGCGUGGCAAAGUGGCUGUGGCGAGACUGCC [A14C U38G] — lower, 0.02
- GGCAGAGCUCAACCCAGCGUGGCAAAGUGGCUGUGGCCAGACUGCC [A14C U38C] — the same, 0.07
- GGCAGAGCUCAACGCAGCGUGGCAAAGUGGCUGUGGAUAGACUGCC [A14G C37A] — the same, 0.07
- GGCAGAGCUCAACGCAGCGUGGCAAAGUGGCUGUGGUUAGACUGCC [A14G C37U] — higher, 0.19
- GGCAGAGCUCAACGCAGCGUGGCAAAGUGGCUGUGGGUAGACUGCC [A14G C37G] — lower, 0.04
- GGCAGAGCUCAACGCACCGUGGCAAAGUGGCUGUGGCUAGACUGCC [A14G G17C] — higher, 0.09
- GGCAGAGCUCAACGCAUCGUGGCAAAGUGGCUGUGGCUAGACUGCC [A14G G17U] — higher, 0.09
- GGCAGAGCUCAACGCAACGUGGCAAAGUGGCUGUGGCUAGACUGCC [A14G G17A] — higher, 0.17
- GGCAGAGCUCAACGCAGCGUGGCAAAGUGGCUGUGGCUAGGCUGCC [A14G A41G] — higher, 0.16
- GGCAGAGCUCAACGCAGCGUGGCAAAGUGGCUGUGGCUAGUCUGCC [A14G A41U] — higher, 0.77
- GGCAGAGCUCAACGCAGCGUGGCAAAGUGGCUGUGGCUAGCCUGCC [A14G A41C] — lower, 0.05
- GGCAGAGCUCAACGCAGCGUGGCAACGUGGCUGUGGCUAGACUGCC [A14G A26C] — higher, 0.67
- GGCAGAGCUCAACGCAGCGUGGCAAUGUGGCUGUGGCUAGACUGCC [A14G A26U] — higher, 0.59
- GGCAGAGCUCAACGCAGCGUGGCAAGGUGGCUGUGGCUAGACUGCC [A14G A26G] — higher, 0.43
- GGCAGAGCUCAACGGAGCGUGGCAAAGUGGCUGUGGCUAGACUGCC [A14G C15G] — higher, 0.08
- GGCAGAGCUCAACGAAGCGUGGCAAAGUGGCUGUGGCUAGACUGCC [A14G C15A] — higher, 0.08
- GGCAGAGCUCAACGUAGCGUGGCAAAGUGGCUGUGGCUAGACUGCC [A14G C15U] — higher, 0.11
- GGCAGAGCUCAACGCAGCGUGGCGAAGUGGCUGUGGCUAGACUGCC [A14G A24G] — higher, 0.76
- GGCAGAGCUCAACGCAGCGUGGCUAAGUGGCUGUGGCUAGACUGCC [A14G A24U] — higher, 0.43
- GGCAGAGCUCAACGCAGCGUGGCCAAGUGGCUGUGGCUAGACUGCC [A14G A24C] — higher, 0.27
- GGCAGAGCUCAACGCAGCAUGGCAAAGUGGCUGUGGCUAGACUGCC [A14G G19A] — higher, 1.03
- GGCAGAGCUCAACGCAGCCUGGCAAAGUGGCUGUGGCUAGACUGCC [A14G G19C] — higher, 0.25
- GGCAGAGCUCAACGCAGCGUGGCAAAGUGGCUGUGGCUAGACUGCC [A14G] — higher, 0.58
- GGCAGAGCUCAACGCAGCGUGGCAAAGUGGCUGUGGCUAGAUUGCC [A14G C42U] — higher, 0.21
- GGCAGAGCUCAACGCAGCGUGGCAAAGUGGCUGUGGCUAGAGUGCC [A14G C42G] — lower, 0.04
- GGCAGAGCUCAACGCAGCGUGGCAAAGUGGCUGUGGCUAGAAUGCC [A14G C42A] — higher, 0.08
- GGCAGAGCUCAACGCAGCGUGGCAAAGUGGCUGUGGCUAGACUGUC [A14G C45U] — higher, 0.63
- GGCAGAGCUCAACGCAGCGUGGCAAAGUGGCUGUGGCUAGACUGGC [A14G C45G] — higher, 0.2
- GGCAGAGCUCAACGCAGCGUGGCAAAGUGGCUGUGGCUAGACUGAC [A14G C45A] — higher, 0.38
- GGCAGAGCUCAACGCCGCGUGGCAAAGUGGCUGUGGCUAGACUGCC [A14G A16C] — higher, 0.08
- GGCAGAGCUCAACGCUGCGUGGCAAAGUGGCUGUGGCUAGACUGCC [A14G A16U] — lower, 0.06
- GGCAGAGCUCAACGCGGCGUGGCAAAGUGGCUGUGGCUAGACUGCC [A14G A16G] — higher, 0.1
- GGCAGAGCUCAACGCAGCGUGGGAAAGUGGCUGUGGCUAGACUGCC [A14G C23G] — higher, 0.45
- GGCAGAGCUCAACGCAGCGUGGUAAAGUGGCUGUGGCUAGACUGCC [A14G C23U] — higher, 0.85
- GGCAGAGCUCAACGCAGCGUGGAAAAGUGGCUGUGGCUAGACUGCC [A14G C23A] — higher, 0.53
- GGCAGAGCUCAACGCAGGGUGGCAAAGUGGCUGUGGCUAGACUGCC [A14G C18G] — higher, 0.21
- GGCAGAGCUCAACGCAGUGUGGCAAAGUGGCUGUGGCUAGACUGCC [A14G C18U] — higher, 0.42
- GGCAGAGCUCAACGCAGAGUGGCAAAGUGGCUGUGGCUAGACUGCC [A14G C18A] — higher, 0.2
- GGCAGAGCUCAACGCAGCGUGGCAAAGUGGCUGUGGCUCGACUGCC [A14G A39C] — higher, 0.39
- GGCAGAGCUCAACGCAGCGUGGCAAAGUGGCUGUGGCUUGACUGCC [A14G A39U] — higher, 0.37
- GGCAGAGCUCAACGCAGCGUGGCAAAGUGGCUGUGGCUGGACUGCC [A14G A39G] — higher, 0.1
- GGCAGAGCUCAACCCAGCGUGGCAAAGUGGCUGGGGCUAGACUGCC [A14C U34G] — higher, 0.26
- GGCAGAGCUCAACCCAGCGUGGCAAAGUGGCUGUGGCUAGACAGCC [A14C U43A] — higher, 0.2
- GGCAGAGCUCAACCCAGCGUGGCAAAGUGGCUGUGGCUAGACCGCC [A14C U43C] — lower, 0.04
- GGCAGAGCUCAACCCAGCGUGGCAAAGUGGCUGUGGCUAGACGGCC [A14C U43G] — lower, 0.01
- GGCAGAGCUCAACGCAGCGUGGCACAGUGGCUGUGGCUAGACUGCC [A14G A25C] — higher, 0.18
- GGCAGAGCUCAACGCAGCGUGGCAUAGUGGCUGUGGCUAGACUGCC [A14G A25U] — higher, 0.53
- GGCAGAGCUCAACGCAGCGUGGCAGAGUGGCUGUGGCUAGACUGCC [A14G A25G] — higher, 0.32
- GGCAGAGCUCAACGCAGCGUGGCAAAGUGGCUGUGGCUAGACUGCU [A14G C46U] — higher, 0.26
- GGCAGAGCUCAACGCAGCGUGGCAAAGUGGCUGUGGCUAGACUGCA [A14G C46A] — higher, 0.2
- GGCAGAGCUCAACGCAGCGUGGCAAAGUGGCUGUGGCUAGACUGCG [A14G C46G] — higher, 0.14
- GGCAGAGCUCAACGCAGCGUGGCAAAGUGGUUGUGGCUAGACUGCC [A14G C31U] — lower, 0.04
- GGCAGAGCUCAACGCAGCGUGGCAAAGUGGGUGUGGCUAGACUGCC [A14G C31G] — lower, 0.04
- GGCAGAGCUCAACGCAGCGUGGCAAAGUGGAUGUGGCUAGACUGCC [A14G C31A] — higher, 0.09
